Source: US7595158B2, “Bcl2L12 polypeptide activators and inhibitors” (Dana-Farber Cancer Institute, Inc., priority 2003, dated 2009)
One block for each molecule: values may come before it.

Assays:
[1] = tested on: Ink4a/Arf deficient astrocytes; experiment: DNA fragmentation (sub-G1, FACS) in Ink4a/Arf deficient astrocytes after apoptotic stimuli; assay type: cell-based, mouse; conditions: for DNA fragmentation: 500 nM STS, pBabe about 22 percent
Protocol: After STS treatment, the cells were analyzed for apoptosis by assessing annexin V binding and DNA fragmentation using a FACS based analysis.
In a separate experiment, Ink4a/Arf deficient astrocytes ectopically expressing Bcl2L12-V5 polypeptide or containing an empty vector as control were treated with 0, 50, 100, or 1000 nM of STS. After a 24 hour-incubation, DNA fragmentation was measured using FACS-based quantification of sub-G1 DNA content.
In another experiment, Ink4a/Arf deficient astrocytes ectopically expressing Bcl2L12-V5 polypeptide or containing an empty vector as control were treated with 0, 2, 4, 8, 16, or 32 μM camptothecin (CPT) for 20 hours. After the 20 hour incubation, DNA fragmentation was determined by FACS-based quantification of sub-G1 peaks. Expression of the Bcl2L12 polypeptide conferred resistance to CPT-stimulated apoptosis.
Ink4a/Arf deficient astrocytes ectopically expressing Bcl2L12-V5 polypeptide or containing an empty vector as control were treated with TNFα in the presence of 1 μg/mL cycloheximide for 24 hours. After the 24 hour incubation, DNA fragmentation was measured using FACS-based quantification of sub-G1 DNA content.
Ink4a/Arf deficient astrocytes ectopically expressing Bcl2L12-V5 polypeptide or containing an empty vector as control were treated with 0, 10, 50, and 100 Gray (Gy) of γ radiation. After 24 hours, DNA fragmentation was measured. Ectopic expression of a Bcl2L12 polypeptide protects INK4a/Arf deficient astrocytes from γ-irradiation-induced apoptosis (FIG. 5C).

cytochrome c release = experiment: Cytochrome c release in STS-treated astrocytes; assay type: cell-based
Protocol: To determine whether Bcl2L12 polypeptides inhibit the apoptogenic activity of mitochondria, cytochrome c release in STS-treated astrocytes over-expressing Bcl2L12-V5 polypeptides was assessed and compared to astrocytes transfected with a LacZ control vector. An anti-tubulin immunoblot was performed as a loading control. Suboptimal concentrations of digitonin were used to allow for selective permeabilization of the plasma membrane, but not of the intracellular membranes. […] This is consistent with the inability of Bcl2L12-V5 polypeptides to localize to mitochondria.

caspase-9 = molecular target: T1, caspase-9 (Homo sapiens, UniProt P55211); experiment: Caspase-9 in vitro cleavage and LEHDase activity assay with 293T cells; assay type: cell-based; conditions: for caspase-9 activity: V5 tagged constructs, vector only about 420 RFUs
T1 construct: endogenous in cells; host or cells: 293T
T1 sequence (P55211 1-416): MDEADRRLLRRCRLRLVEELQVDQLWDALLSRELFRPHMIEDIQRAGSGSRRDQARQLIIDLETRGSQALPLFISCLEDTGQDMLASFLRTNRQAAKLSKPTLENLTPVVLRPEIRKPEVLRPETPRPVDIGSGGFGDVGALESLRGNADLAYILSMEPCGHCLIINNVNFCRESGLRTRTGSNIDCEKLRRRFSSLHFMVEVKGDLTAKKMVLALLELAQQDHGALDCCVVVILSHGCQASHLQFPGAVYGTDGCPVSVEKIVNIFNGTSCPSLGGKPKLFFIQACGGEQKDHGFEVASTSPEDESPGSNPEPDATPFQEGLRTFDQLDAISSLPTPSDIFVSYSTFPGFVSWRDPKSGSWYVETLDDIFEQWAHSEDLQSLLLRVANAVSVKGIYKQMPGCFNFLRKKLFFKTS
From the text: To determine if Bcl2L12 polypeptides could-regulate-the activity of caspase-9, a cell-free system was used in which exogenously added dATP and cytochrome c induced the activation of [^35S] labeled in vitro translated caspase-9. […] To confirm the inhibitory effect of Bcl2L12 polypeptides on caspase-9 maturation, 293T cells ectopically expressing Bcl2L12-V5 polypeptides where either subjected to an in vitro cleavage assay or to an activity assay using the caspase-9 specific fluorogenic peptide LEHD.
In addition, vectors encoding V5 tagged wild-type human Bcl2L12 polypeptide (WT; human amino acid sequence 1-334) and three V5 tagged truncation mutants of human Bcl2L12 (Bcl2L12-ΔBH2 polypeptide, human amino acid sequence 1-310; Bcl2L12-ΔBH2ΔP-r polypeptide, human amino acid sequence 1-267; and Bcl2L12-ΔBH2ΔP-rΔIHD polypeptide, human amino acid sequence 1-167) were made (FIG. 4A). These vectors expressed the appropriately sized polypeptides when translated in vitro or when expressed in 293T cells.

caspase-9 activity (caspase-9): about 160 RFUs
B1: Bcl2L12-V5-ΔBH2: V5 tagged mutant lacking amino acid residues 311-334 (BH2 domain) of human Bcl2L12; sequence 1-310 (protein)
chain: MGRPAGLFPPLCPFLGFRPEACWERHMQIERAPSVPPFLRWAGYRPGPVRRRGKVELIKFVRVQWRRPQVEWRRRRWGPGPGASMAGSEELGLREDTLRVLAAFLRRGEAAGSPVPTPPRSPAQEEPTDFLSRLRRCLPCSLGRGAAPSESPRPCSLPIRPCYGLEPGPATPDFYALVAQRLEQLVQEQLKSPPSPELQGPPSTEKEAILRRLVALLEEEAEVINQKLASDPALRSKLVRLSSDSFARLVELFCSRDDSSRPSRACPGPPPPSPEPLARLALAMELSRRVAGLGGTLAGLSVEHVHSFTP
modifications: left off: small tags and cut ends
DNA fragmentation [1]: about 7% | cytochrome c release (cytochrome c release): exhibited cytochrome c release

caspase-9 activity (caspase-9): about 145 RFUs | processing of caspase-9 into p37 and p35 (caspase-9; in vitro cleavage assay, 293T cells, vs vector only): reduced processing of caspase-9
B2: Bcl2L12-V5: Bcl2L12 polypeptide having the V5 epitope tag, ectopically expressed from pBabe-Bcl2L12-V5 vector; human amino acid sequence 1-334 (protein)
chain: MGRPAGLFPPLCPFLGFRPEACWERHMQIERAPSVPPFLRWAGYRPGPVRRRGKVELIKFVRVQWRRPQVEWRRRRWGPGPGASMAGSEELGLREDTLRVLAAFLRRGEAAGSPVPTPPRSPAQEEPTDFLSRLRRCLPCSLGRGAAPSESPRPCSLPIRPCYGLEPGPATPDFYALVAQRLEQLVQEQLKSPPSPELQGPPSTEKEAILRRLVALLEEEAEVINQKLASDPALRSKLVRLSSDSFARLVELFCSRDDSSRPSRACPGPPPPSPEPLARLALAMELSRRVAGLGGTLAGLSVEHVHSFTPWIQAHGGWEGILAVSPVDLNLPLD
modifications: left off: small tags and cut ends
resistance to anti-Fas, TRAIL, etoposide, and carboplatin mediated apoptosis [1]: complete resistance | DNA fragmentation [1]: about 2% | protection from γ-irradiation-induced apoptosis (DNA fragmentation) ([1]; 10, 50, 100 Gy, 24 hours): protects | protection from STS-induced apoptosis (DNA fragmentation) ([1]; 50, 100, or 1000 nM STS, 24 hours): protected astrocytes from STS-induced apoptosis | protection from TNFα-mediated apoptosis (DNA fragmentation) ([1]; TNFα with 1 μg/mL cycloheximide, 24 hours): significant protection | maximum percent DNA fragmentation ([1]; camptothecin up to 32 μM, 20 hours, pBabe greater than 60 percent): 35 to 45% | cytochrome c release (cytochrome c release): did not block cytochrome c release | LEHDase activity (caspase-9; 293T cells, control vector about 800 RFUs): about 260 RFUs
